Measurements from patent EP1073891B1, “METHOD OF PREDICTING RECEPTOR MODULATING ACTIVITY” (Duke University, priority 1998, dated 1999).
Each block holds one sequence with its values, some of them ahead of it.

How the values were obtained:
[1] = target: ERβ (Homo sapiens, UniProt Q92731); experiment: Phage ELISA / fingerprint on ER immobilized on biotinylated ERE (Examples 2.3-2.5); assay type: binding; design: purchased PanVera Corporation, Madison, WI; key: semiquantitative scale of 0 to 7+; 1+: semiquantitative scale of 0 to 7+; 2+: semiquantitative scale of 0 to 7+; 3+: semiquantitative scale of 0 to 7+; 4+: semiquantitative scale of 0 to 7+; 5+: semiquantitative scale of 0 to 7+; 6+: semiquantitative scale of 0 to 7+; semiquantitative scale of 0 to 7+; details: for binding activity, ERβ and Estradiol: ERβ and Estradiol (1 µM); for binding activity, ERβ and tamoxifen: ERβ and tamoxifen (4-OH tamoxifen, 1 µM)
ERβ, sequence (Q92731 whole entry): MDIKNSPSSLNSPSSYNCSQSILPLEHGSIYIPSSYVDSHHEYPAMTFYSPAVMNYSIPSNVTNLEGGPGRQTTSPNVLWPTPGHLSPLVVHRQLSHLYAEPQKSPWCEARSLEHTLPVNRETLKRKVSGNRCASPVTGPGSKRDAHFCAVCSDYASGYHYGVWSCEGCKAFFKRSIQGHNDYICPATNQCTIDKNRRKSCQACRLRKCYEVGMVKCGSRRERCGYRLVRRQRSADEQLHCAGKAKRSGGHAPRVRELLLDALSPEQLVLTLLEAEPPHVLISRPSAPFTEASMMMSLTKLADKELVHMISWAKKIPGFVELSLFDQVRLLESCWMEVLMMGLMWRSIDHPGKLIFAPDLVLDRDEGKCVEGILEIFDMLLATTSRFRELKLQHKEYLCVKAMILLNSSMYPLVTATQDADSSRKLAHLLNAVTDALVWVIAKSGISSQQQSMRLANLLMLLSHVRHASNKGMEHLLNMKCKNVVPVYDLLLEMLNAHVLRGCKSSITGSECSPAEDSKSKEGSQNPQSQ

[2] = target: T1, ERα (Homo sapiens, UniProt P03372); experiment: as above; assay type: binding; design: purchased PanVera Corporation, Madison, WI; key to binding activity, ERα and buffer / binding activity, ERα and estradiol / binding activity, ERα and tamoxifen / binding of peptide, Class Specific Fingerprint on ERα: semiquantitative scale of 0 to 7+; 1+: semiquantitative scale of 0 to 7+; 2+: semiquantitative scale of 0 to 7+; 3+: semiquantitative scale of 0 to 7+; 4+: semiquantitative scale of 0 to 7+; 5+: semiquantitative scale of 0 to 7+; 6+: semiquantitative scale of 0 to 7+; semiquantitative scale of 0 to 7+; details: for binding activity, ERα and estradiol: ERα and estradiol (1 µM); for binding activity, ERα and tamoxifen: ERα and tamoxifen (4-OH tamoxifen, 1 µM)
T1 sequence (P03372 1-595): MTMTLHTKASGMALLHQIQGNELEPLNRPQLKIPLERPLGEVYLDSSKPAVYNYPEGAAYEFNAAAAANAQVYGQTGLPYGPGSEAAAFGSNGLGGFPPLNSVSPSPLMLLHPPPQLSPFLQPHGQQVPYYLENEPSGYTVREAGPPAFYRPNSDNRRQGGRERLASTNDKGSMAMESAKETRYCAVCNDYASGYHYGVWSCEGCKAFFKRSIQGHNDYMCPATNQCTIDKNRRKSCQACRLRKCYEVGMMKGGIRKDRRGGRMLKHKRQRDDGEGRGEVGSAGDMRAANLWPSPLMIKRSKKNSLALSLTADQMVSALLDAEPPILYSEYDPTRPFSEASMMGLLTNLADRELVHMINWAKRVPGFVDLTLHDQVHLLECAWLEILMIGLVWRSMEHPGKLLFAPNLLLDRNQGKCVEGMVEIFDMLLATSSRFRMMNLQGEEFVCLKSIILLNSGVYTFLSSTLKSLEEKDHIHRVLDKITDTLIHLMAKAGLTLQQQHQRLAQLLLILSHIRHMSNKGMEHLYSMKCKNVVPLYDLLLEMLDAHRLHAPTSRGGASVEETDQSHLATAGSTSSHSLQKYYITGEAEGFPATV

Sequence: SRLHCLLDSSYCSSR [Peptide 1b-β]
- binding activity, ERβ and Estradiol [1]: 7+
- binding activity, ERβ and buffer [1]: 7+
- binding activity, ERβ and tamoxifen [1]: 2+
- binding activity, ERα and buffer [2]: 4+
- binding activity, ERα and estradiol [2]: 7+
- binding activity, ERα and tamoxifen [2]: 3+

Sequence: SRLHDLLLRDESPSR [Peptide 3E-β]
- binding activity, ERβ and Estradiol [1]: 6+
- binding activity, ERβ and buffer [1]: 3+
- binding activity, ERβ and tamoxifen [1]: 1+
- binding activity, ERα and buffer [2]: 4+
- binding activity, ERα and estradiol [2]: 5+
- binding activity, ERα and tamoxifen [2]: 4+

Sequence: SRMFQVCGDEVCLRSR [Peptide 16t-β]
- binding activity, ERβ and Estradiol [1]: 5+
- binding activity, ERβ and buffer [1]: 7+
- binding activity, ERβ and tamoxifen [1]: 7+
- binding activity, ERα and buffer [2]: 7+
- binding activity, ERα and estradiol [2]: 6+
- binding activity, ERα and tamoxifen [2]: 7+

Sequence: SRNECIGPWCLTISR [Peptide 13t-β]
- binding activity, ERβ and Estradiol [1]: 7+
- binding activity, ERβ and buffer [1]: 7+
- binding activity, ERβ and tamoxifen [1]: 7+
- binding activity, ERα and buffer [2]: 3+
- binding activity, ERα and estradiol [2]: 2+
- binding activity, ERα and tamoxifen [2]: 4+

Sequence: SRSPILWHLLQDGSR [Peptide 10E-β]
- binding activity, ERβ and Estradiol [1]: 7+
- binding activity, ERβ and buffer [1]: 4+
- binding activity, ERβ and tamoxifen [1]: 2+
- binding activity, ERα and buffer [2]: 5+
- binding activity, ERα and estradiol [2]: 6+
- binding activity, ERα and tamoxifen [2]: 4+

Sequence: SRWWLDDHELLLYSSR [Peptide 26E-β]
- binding activity, ERβ and Estradiol [1]: 7+
- binding activity, ERβ and buffer [1]: 5+
- binding activity, ERβ and tamoxifen [1]: 2+
- binding activity, ERα and buffer [2]: 6+
- binding activity, ERα and estradiol [2]: 4+
- binding activity, ERα and tamoxifen [2]: 5+

Sequence: SSAGLLEDMLRSRSR [Peptide 21E-β]
- binding activity, ERβ and Estradiol [1]: 7+
- binding activity, ERβ and buffer [1]: 3+
- binding activity, ERβ and tamoxifen [1]: 1+
- binding activity, ERα and buffer [2]: 4+
- binding activity, ERα and estradiol [2]: 5+
- binding activity, ERα and tamoxifen [2]: 3+

Further lines, results first:

- binding activity, ERβ and Estradiol [1]: 3+
- binding activity, ERβ and buffer [1]: 6+
- binding activity, ERβ and tamoxifen [1]: 7+
- binding activity, ERα and buffer [2]: 7+
- binding activity, ERα and estradiol [2]: 6+
- binding activity, ERα and tamoxifen [2]: 7+
Sequence: SRLNGVFCHDSSDLWVCSR [Peptide 18t-β]

- binding activity, ERβ and Estradiol [1]: 2+
- binding activity, ERβ and buffer [1]: 3+
- binding activity, ERβ and tamoxifen [1]: 7+
- binding activity, ERα and buffer [2]: 3+
- binding activity, ERα and estradiol [2]: 3+
- binding activity, ERα and tamoxifen [2]: 6+
Sequence: SRLPPSVFSMCGSEVCLSR [Peptide 9t-β]

- binding activity, ERβ and Estradiol [1]: 7+
- binding activity, ERβ and buffer [1]: 3+
- binding activity, ERβ and tamoxifen [1]: 1+
- binding activity, ERα and buffer [2]: 5+
- binding activity, ERα and estradiol [2]: 4+
- binding activity, ERα and tamoxifen [2]: 4+
Sequence: SRNLLCLLDQEACSR [Peptide 17E-β]

- binding activity, ERβ and Estradiol [1]: 7+
- binding activity, ERβ and buffer [1]: 5+
- binding activity, ERβ and tamoxifen [1]: 2+
- binding activity, ERα and buffer [2]: 5+
- binding activity, ERα and estradiol [2]: 6+
- binding activity, ERα and tamoxifen [2]: 4+
Sequence: SRPEGSSWLLHYLSR [Peptide 24E-β]

- binding activity, ERβ and Estradiol [1]: 6+
- binding activity, ERβ and buffer [1]: 7+
- binding activity, ERβ and tamoxifen [1]: 7+
- binding activity, ERα and buffer [2]: 2+
- binding activity, ERα and estradiol [2]: 2+
- binding activity, ERα and tamoxifen [2]: 3+
Sequence: SRPGCLRGVWCLADTPPSR [Peptide 20t-β]

- binding activity, ERβ and Estradiol [1]: 6+
- binding activity, ERβ and buffer [1]: 7+
- binding activity, ERβ and tamoxifen [1]: 7+
- binding activity, ERα and buffer [2]: 2+
- binding activity, ERα and estradiol [2]: 2+
- binding activity, ERα and tamoxifen [2]: 3+
Sequence: SRPYCLGDVWCLDSR [Peptide 2t-β]
